Here are results for six molecules from paper PMC5821828, “A Genetic Screen for Investigating the Human Lysosomal CystineTransporter, Cystinosin” (Scientific Reports, 2018).

The chains are these.
B1: CTNS WT (human cystinosin with GYDQL motif) (Homo sapiens) (protein)
chain: SVSLTVPPVVKLENGSSTNVSLTLRPPLNATLVITFEITFRSKNITILELPDEVVVPPGVTNSSFQVTSQNVGQLTVYLHGNHSNQTGPRIRFLVIRSSAISIINQVIGWIYFVAWSISFYPQVIMNWRRKSVIGLSFDFVALNLTGFVAYSVFNIGLLWVPYIKEQFLLKYPNGVNPVNSNDVFFSLHAVVLTLIIIVQCCLYERGGQRVSWPAIGFLVLAWLFAFVTMIVAAVGVTTWLQFLFCFSYIKLAVTLVKYFPQAYMNFYYKSTEGWSIGNVLLDFTGGSFSLLQMFLQSYNNDQWTLIFGDPTKFGLGVFSIVFDVVFFIQHFCLYRKRPGYDQLN
notes: full-length, untagged, plasmid p416TEF (TEF-CTNS, ABE 3006), expressed in S. cerevisiae vps1Δvps17Δ; uptake across plasma membrane
B2: CTNS-Δgydql (Homo sapiens; G197R) (protein)
chain: SVSLTVPPVVKLENGSSTNVSLTLRPPLNATLVITFEITFRSKNITILELPDEVVVPPGVTNSSFQVTSQNVGQLTVYLHGNHSNQTGPRIRFLVIRSSAISIINQVIGWIYFVAWSISFYPQVIMNWRRKSVIGLSFDFVALNLTGFVAYSVFNIGLLWVPYIKEQFLLKYPNRVNPVNSNDVFFSLHAVVLTLIIIVQCCLYERGGQRVSWPAIGFLVLAWLFAFVTMIVAAVGVTTWLQFLFCFSYIKLAVTLVKYFPQAYMNFYYKSTEGWSIGNVLLDFTGGSFSLLQMFLQSYNNDQWTLIFGDPTKFGLGVFSIVFDVVFFIQHFCLYRKRP
notes: lacks C-terminal GYDQLN (lysosomal targeting motif; Y363 and L366), untagged, p416TEF (ABE 3513), expressed in S. cerevisiae vps1Δvps17Δ (ABC 5017)
B3: CTNS-Δgydql (Homo sapiens; G131S) (protein)
chain: SVSLTVPPVVKLENGSSTNVSLTLRPPLNATLVITFEITFRSKNITILELPDEVVVPPGVTNSSFQVTSQNVGQLTVYLHGNHSNQTGPRIRFLVIRSSAISIINQVISWIYFVAWSISFYPQVIMNWRRKSVIGLSFDFVALNLTGFVAYSVFNIGLLWVPYIKEQFLLKYPNGVNPVNSNDVFFSLHAVVLTLIIIVQCCLYERGGQRVSWPAIGFLVLAWLFAFVTMIVAAVGVTTWLQFLFCFSYIKLAVTLVKYFPQAYMNFYYKSTEGWSIGNVLLDFTGGSFSLLQMFLQSYNNDQWTLIFGDPTKFGLGVFSIVFDVVFFIQHFCLYRKRP
notes: as for B2
B4: CTNS-Δgydql (Homo sapiens; G309C) (protein)
chain: SVSLTVPPVVKLENGSSTNVSLTLRPPLNATLVITFEITFRSKNITILELPDEVVVPPGVTNSSFQVTSQNVGQLTVYLHGNHSNQTGPRIRFLVIRSSAISIINQVIGWIYFVAWSISFYPQVIMNWRRKSVIGLSFDFVALNLTGFVAYSVFNIGLLWVPYIKEQFLLKYPNGVNPVNSNDVFFSLHAVVLTLIIIVQCCLYERGGQRVSWPAIGFLVLAWLFAFVTMIVAAVGVTTWLQFLFCFSYIKLAVTLVKYFPQAYMNFYYKSTEGWSIGNVLLDFTGCSFSLLQMFLQSYNNDQWTLIFGDPTKFGLGVFSIVFDVVFFIQHFCLYRKRP
notes: as for B2
B5: CTNS-Δgydql (Homo sapiens; S270T) (protein)
chain: SVSLTVPPVVKLENGSSTNVSLTLRPPLNATLVITFEITFRSKNITILELPDEVVVPPGVTNSSFQVTSQNVGQLTVYLHGNHSNQTGPRIRFLVIRSSAISIINQVIGWIYFVAWSISFYPQVIMNWRRKSVIGLSFDFVALNLTGFVAYSVFNIGLLWVPYIKEQFLLKYPNGVNPVNSNDVFFSLHAVVLTLIIIVQCCLYERGGQRVSWPAIGFLVLAWLFAFVTMIVAAVGVTTWLQFLFCFTYIKLAVTLVKYFPQAYMNFYYKSTEGWSIGNVLLDFTGGSFSLLQMFLQSYNNDQWTLIFGDPTKFGLGVFSIVFDVVFFIQHFCLYRKRP
notes: as for B2

In the first data set the test system is T1, N[C@@H](CSSC[C@H](N)C(=O)O)C(=O)O.
T1 construct: lacks C-terminal GYDQLN (lysosomal targeting motif; Y363 and L366), untagged, p416TEF (ABE 3513), expressed in S. cerevisiae vps1Δvps17Δ (ABC 5017)
In words: cells, lysate or membranes. Particulars: pH 5.5 (MES), 2% glucose, 30 °C, vps1Δvps17Δ yeast, labelled compound. The class given is cell-based, Homo sapiens.
As for CTNS-Δgydql (Homo sapiens; DEL362-367), the Michaelis-Menten constant (Km) (as a rule, the concentration of substrate that gives half-maximal velocity) came out at 254.4 ± 61 µM.

Substrate in the next data set: N[C@@H](CSSC[C@H](N)C(=O)O)C(=O)O
Nature of the data set: cells, lysate or membranes. The class given is cell-based, Homo sapiens. The settings on record: pH 5.5 (MES), 2% glucose, 30 °C, vps1Δvps17Δ yeast, labelled compound.
As for B1, the Michaelis constant (Km) is listed as 400 ± 133 µM.
Same read-out and setting: for B2 the value was 97.3 ± 30.9 µM; for B3, 130.4 ± 10.9 µM; for B4, 124.8 ± 23.5 µM.
Turning to B5, the Km was 207.2 ± 41.5 µM.
